# Biological target: FGFR3 (UniProt P22607)
# Test: phosphorylation enrichment, bacterial display (enrichment ratio); higher = better substrate or ligand; peptides without Tyr show the background
# 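Note: 11-residue human phosphosite peptides and single-mutation variants displayed on the E. coli surface, counted by deep sequencing, each peptide's frequency after selection divided by its frequency in the unselected input library; frequency after pTyr selection over input frequency; kinase dosed for 20-30% of maximal phosphorylation in three min.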
# Chain of FGFR3 (P22607 whole entry, looked up): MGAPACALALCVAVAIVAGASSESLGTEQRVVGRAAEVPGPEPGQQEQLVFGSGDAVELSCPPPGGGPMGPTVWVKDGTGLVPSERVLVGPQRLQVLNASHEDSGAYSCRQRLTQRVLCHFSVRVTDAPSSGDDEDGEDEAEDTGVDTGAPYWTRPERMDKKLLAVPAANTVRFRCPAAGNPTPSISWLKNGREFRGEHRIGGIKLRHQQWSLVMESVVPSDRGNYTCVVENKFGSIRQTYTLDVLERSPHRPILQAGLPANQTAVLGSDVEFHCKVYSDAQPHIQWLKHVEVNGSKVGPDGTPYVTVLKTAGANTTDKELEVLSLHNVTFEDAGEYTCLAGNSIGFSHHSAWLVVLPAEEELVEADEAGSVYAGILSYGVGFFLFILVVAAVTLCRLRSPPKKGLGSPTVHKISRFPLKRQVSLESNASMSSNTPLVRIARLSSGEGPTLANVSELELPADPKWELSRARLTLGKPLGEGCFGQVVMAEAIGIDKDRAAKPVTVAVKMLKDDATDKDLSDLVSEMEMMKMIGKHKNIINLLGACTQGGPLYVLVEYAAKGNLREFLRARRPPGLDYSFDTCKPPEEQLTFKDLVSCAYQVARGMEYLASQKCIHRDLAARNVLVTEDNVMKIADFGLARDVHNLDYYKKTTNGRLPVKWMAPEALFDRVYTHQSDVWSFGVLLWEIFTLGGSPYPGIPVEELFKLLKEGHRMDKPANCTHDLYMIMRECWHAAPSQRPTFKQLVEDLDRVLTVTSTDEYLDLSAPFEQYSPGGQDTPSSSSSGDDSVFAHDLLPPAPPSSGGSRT
row,Sequence,phosphorylation enrichment
1,IRKVLYANNVM [ACTA1_Y296_D294V],0.395
2,LERFIYNRQEF [HLA-DPB1_Y59_E62Q_YF],0.532
3,ATDLAYFLVRK [ASL_Y375_YF],1.32
4,QRRLIYRCQVG [NR2E3_Y81_R76Q],0.845
5,ARRMEYLASQK [FGFR2_Y616_G613R],0.437
6,SDYYAYSPVRE [H6PD_Y449],14.8
7,SHMVNYQPYRK [TEX37_Y25_D24N],0.353
8,GEDLSYGDVPP [IRS1_Y151],0.84
9,VLRRVYVDFEG [KMT2B_Y1707],0.613
10,MFRAGYDTKQE [F10_Y407_C404R],0.448
11,DSSIRYLQEIY [FGG_Y135],0.655
12,PLDGEYFTLRI [TP53_Y327_Q331R],5
13,HRGCLYLAIEF [TEK_Y899_Y897C_YF],1.17
14,LESILYESSVV [TRPV4_Y91_T89I],0.825
15,IGVGSYSVCKR [RPS6KA3_Y433],0.496
16,LPKVSYMKAID [GLRA1_Y307_V308M],0.77
17,PPPELYFVKVD [TERT_Y707],1.28

row,Sequence,phosphorylation enrichment
1,YYSSEYHCVGG [CTSC_Y345_Y347C],9.28
2,DKMEAYNINET [TEKT4_Y210_D213N],0.663
3,NRLTDYFEPLL [BBS10_Y536_YF],4.38
4,KENITYMKSEQ [L1TD1_Y24_R27S],0.524
5,QLLIEYPPEEV [ZZZ3_Y670_K669E],0.833
6,MRAIIYNSSTA [PLEKHA7_Y243_L241I],0.623
7,LQRVQCDLQKA [DSP_Y1512_Y1512C],1.31
8,RLLVVYPWNQR [HBB_Y36_T39N],0.62
9,CLRIDYERVSQ [DSP_Y1542_R1537C],1.04
10,SSSGGYGGGFG [KRT19_Y61_A60G_YF],0.477
11,LVMFFYAIFGM [SCN1A_Y1684_I1683F],1.34
12,KELAPYDENWF [RPS19_Y48],0.664
13,ESPGLCGFLNV [BCR_Y910_Y910C],0.72
14,CSRRFYQLTKL [AR_Y858],0.528
15,QRRNVYFFSFL [PTEN_Y176_Y174N_YF],0.728
16,LGKLIYPVGFW [NTHL1_Y177],1.13

# Biological target: EPHB1 (UniProt P54762)
# Test: as above
# Chain of EPHB1 (P54762 whole entry, looked up): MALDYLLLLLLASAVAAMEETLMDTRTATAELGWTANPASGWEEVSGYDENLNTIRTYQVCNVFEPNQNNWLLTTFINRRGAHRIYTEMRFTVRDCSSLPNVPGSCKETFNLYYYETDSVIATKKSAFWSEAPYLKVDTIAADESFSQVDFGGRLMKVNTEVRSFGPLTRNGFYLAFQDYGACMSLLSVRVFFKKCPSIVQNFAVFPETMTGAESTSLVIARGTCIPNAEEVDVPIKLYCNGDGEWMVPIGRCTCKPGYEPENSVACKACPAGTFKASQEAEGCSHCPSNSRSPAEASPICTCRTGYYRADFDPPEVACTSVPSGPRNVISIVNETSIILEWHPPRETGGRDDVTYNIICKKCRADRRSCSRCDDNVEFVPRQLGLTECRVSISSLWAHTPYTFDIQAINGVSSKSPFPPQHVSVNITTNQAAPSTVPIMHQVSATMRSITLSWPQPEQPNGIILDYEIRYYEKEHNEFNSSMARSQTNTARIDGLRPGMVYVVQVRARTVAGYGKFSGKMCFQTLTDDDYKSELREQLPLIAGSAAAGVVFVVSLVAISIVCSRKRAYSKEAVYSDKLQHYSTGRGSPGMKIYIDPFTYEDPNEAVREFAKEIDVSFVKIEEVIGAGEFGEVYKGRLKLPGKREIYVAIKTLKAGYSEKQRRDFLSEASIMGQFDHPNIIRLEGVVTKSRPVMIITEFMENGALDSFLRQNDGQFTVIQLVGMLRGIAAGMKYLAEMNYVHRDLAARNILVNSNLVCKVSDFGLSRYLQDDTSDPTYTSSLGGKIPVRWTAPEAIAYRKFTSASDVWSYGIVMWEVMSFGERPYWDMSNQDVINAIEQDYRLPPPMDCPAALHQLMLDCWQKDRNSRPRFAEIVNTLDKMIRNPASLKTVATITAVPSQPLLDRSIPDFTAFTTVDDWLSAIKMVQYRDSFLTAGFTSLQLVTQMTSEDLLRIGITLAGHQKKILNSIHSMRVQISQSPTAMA
row,Sequence,phosphorylation enrichment
1,IRKVLYANNVM [ACTA1_Y296_D294V],0.311
2,LERFIYNRQEF [HLA-DPB1_Y59_E62Q_YF],0.436
3,ATDLAYFLVRK [ASL_Y375_YF],0.73
4,QRRLIYRCQVG [NR2E3_Y81_R76Q],0.622
5,ARRMEYLASQK [FGFR2_Y616_G613R],0.947
6,SDYYAYSPVRE [H6PD_Y449],17.5
7,SHMVNYQPYRK [TEX37_Y25_D24N],0.317
8,GEDLSYGDVPP [IRS1_Y151],0.624
9,VLRRVYVDFEG [KMT2B_Y1707],0.424
10,MFRAGYDTKQE [F10_Y407_C404R],0.475
11,DSSIRYLQEIY [FGG_Y135],0.587
12,PLDGEYFTLRI [TP53_Y327_Q331R],1.04
13,HRGCLYLAIEF [TEK_Y899_Y897C_YF],0.758
14,LESILYESSVV [TRPV4_Y91_T89I],0.607
15,IGVGSYSVCKR [RPS6KA3_Y433],0.369
16,LPKVSYMKAID [GLRA1_Y307_V308M],0.632
17,PPPELYFVKVD [TERT_Y707],0.629

row,Sequence,phosphorylation enrichment
1,YYSSEYHCVGG [CTSC_Y345_Y347C],7.69
2,DKMEAYNINET [TEKT4_Y210_D213N],0.488
3,NRLTDYFEPLL [BBS10_Y536_YF],2.54
4,KENITYMKSEQ [L1TD1_Y24_R27S],0.411
5,QLLIEYPPEEV [ZZZ3_Y670_K669E],0.788
6,MRAIIYNSSTA [PLEKHA7_Y243_L241I],0.473
7,LQRVQCDLQKA [DSP_Y1512_Y1512C],1.12
8,RLLVVYPWNQR [HBB_Y36_T39N],0.391
9,CLRIDYERVSQ [DSP_Y1542_R1537C],1.48
10,SSSGGYGGGFG [KRT19_Y61_A60G_YF],0.341
11,LVMFFYAIFGM [SCN1A_Y1684_I1683F],0.608
12,KELAPYDENWF [RPS19_Y48],0.506
13,ESPGLCGFLNV [BCR_Y910_Y910C],0.595
14,CSRRFYQLTKL [AR_Y858],0.407
15,QRRNVYFFSFL [PTEN_Y176_Y174N_YF],0.649
16,LGKLIYPVGFW [NTHL1_Y177],0.999
